Results as given in publication PMC10564799.
“And” between values parts separate entries of the source, which are not always exact repeats. Equal values may be shown once.

Target: SFTSV glycoprotein Gc (SFTSV (Dabie bandavirus), strain JA1-2018)
Experiment: cryo-EM structure

For SFTSV glycoprotein Gc (natural protein), the stoichiometry N was 5 and 6.
